Results: patent US20240109955A1

Key:
Test in all cases: cell-based or functional assay
[1] = target: SARS-CoV-2 spike (S) protein, Omicron sublineage BF.7 (SARS-CoV-2)
[2] = target: SARS-CoV-2 spike (S) protein, Omicron sublineage XBB1.5 (SARS-CoV-2)
[3] = target: SARS-CoV-2 spike (S) protein, Omicron sublineage XBB (SARS-CoV-2)
[4] = target: SARS-CoV-2 spike (S) protein, Omicron sublineage BQ.1.1 (SARS-CoV-2)
[5] = target: SARS-CoV-2 spike (S) protein, Omicron sublineage BQ.1 (SARS-CoV-2)
[6] = target: SARS-CoV-2 spike (S) protein, Omicron sublineage BA.2.75.2 (SARS-CoV-2)
[7] = target: SARS-CoV-2 spike (S) protein, Omicron sublineage BA.4/5 (SARS-CoV-2)
[8] = target: SARS-CoV-2 Omicron BQ.1 spike protein (SARS-CoV-2)
[9] = target: SARS-CoV-2 Omicron BA.2.75.2 spike protein (SARS-CoV-2)
[10] = target: SARS-CoV-2 Omicron BQ.1.1 spike protein (SARS-CoV-2)
[11] = target: SARS-CoV-2 Omicron BA.4/5 spike protein (SARS-CoV-2)
[12] = target: SARS-CoV-2 Omicron XBB spike protein (SARS-CoV-2)

B1: A46 + E12 + B8 (protein)
VH 1: QVQLVESGGGVVQPGRSLRLSCAASGFTLSSYGMHWVRQAPGKGLEWVAVISYDGSNKYYVDSVKGRFTISRDNSKNTLYLQMNSLRAEDTAVYYCRWAYWELLPDYYYGMDVWGQGTTVTVSS
VL 1: QTVVTQEPSFSVSPGGTVTLTCGLSSGSVSTAYFPSWYQQTPGQAPRTLIYGTNTRSSGVPDRFSGSILGNKAALTITGAQADDESDYYCVLYMGRGIVVFGGGTKLTVL
VH 2: EVQLVESGGGLIQPGGSLRLSCAASGVIVSYNYMNWVRQAPGKGLEWVSVIYSGGSTFYADSVRGRFTISRDNSKNTLYLQMNSLRAEDTAVYYCARDLGPAGAFDIWGLGTMVTVSS
VL 2: EIVLTQSPGTLSLSPGETATLSCRASQSFSSDLAWYQQKPGQAPRLLIYGASSRATGIPDRFSGSGSGTDFTLTISRLEPADFAVYYCQQYGSSPPVTFGGGTKVEIK
VH 3: EVQLVESGGALIQPGGSLRLSCAASGIIVSANYMSWVRQAPGKGLEWVSVIYSGGSTFYADSVKGRFTISRDNSKNTLYLEMNSLRAEDTAVYYCARDAPILGVSDWGQGTLVTVSS
VL 3: EIVMTQSPAILSVSPGERATLSCRASQSVAINLAWYQQKPGQAPRLLIYAASSRATGIPGRFSGSGSETNFTLTISSLQSGDFAVYYCQQYITWPPSYTFGQGTKLEIK
B1 was tested, and the IC50, pseudovirus neutralization [1] was 12.9 nM, the IC80, pseudovirus neutralization [1] was 33.8 nM and the IC50, pseudovirus neutralization [2] was 12 nM. The IC80, pseudovirus neutralization [2] was 33 nM.

B2: E76-B8 (antibody, V domains shown)
VH: EVQLVESGGALIQPGGSLRLSCAASGIIVSANYMSWVRQAPGKGLEWVSVIYSGGSTFYADSVKGRFTISRDNSKNTLYLEMNSLRAEDTAVYYCARDAPILGVSDWGQGTLVTVSS
VL: EIVMTQSPAILSVSPGERATLSCRASQSVAINLAWYQQKPGQAPRLLIYAASSRATGIPGRFSGSGSETNFTLTISSLQSGDFAVYYCQQYITWPPSYTFGQGTKLEIK
In the case of B2, the IC50, pseudovirus neutralization [3] is reported as 13.4 ng/mL, the IC80, pseudovirus neutralization [3] is reported as 47.2 ng/mL and the IC50, pseudovirus neutralization [4] is reported as 4.57 ng/mL. The IC80, pseudovirus neutralization [4] was 21.7 ng/mL, the IC50, pseudovirus neutralization [5] was 15 ng/mL and the IC80, pseudovirus neutralization [5] was 49.6 ng/mL. The IC50, pseudovirus neutralization [6] was 12.2 ng/mL, the IC80, pseudovirus neutralization [6] was 27.4 ng/mL and the IC50, pseudovirus neutralization [7] was 6.97 ng/mL. For the same binder, the IC80, pseudovirus neutralization [7] was 14.8 ng/mL.

B3: F769-E12 (antibody, V domains shown)
VH: EVQLVESGGGLIQPGGSLRLSCAASGVIVSYNYMNWVRQAPGKGLEWVSVIYSGGSTFYADSVRGRFTISRDNSKNTLYLQMNSLRAEDTAVYYCARDLGPAGAFDIWGLGTMVTVSS
VL: EIVLTQSPGTLSLSPGETATLSCRASQSFSSDLAWYQQKPGQAPRLLIYGASSRATGIPDRFSGSGSGTDFTLTISRLEPADFAVYYCQQYGSSPPVTFGGGTKVEIK
With B3 the IC50, pseudovirus neutralization [3] was 12.7 ng/mL, the IC80, pseudovirus neutralization [3] was 31.1 ng/mL and the IC50, pseudovirus neutralization [4] was 5.29 ng/mL. It also gave an IC80, pseudovirus neutralization [4] of 17.4 ng/mL, an IC50, pseudovirus neutralization [5] of 11.9 ng/mL and an IC80, pseudovirus neutralization [5] of 40.9 ng/mL. The IC50, pseudovirus neutralization [6] was 6.99 ng/mL, the IC80, pseudovirus neutralization [6] was 40.1 ng/mL and the IC50, pseudovirus neutralization [7] was 4.62 ng/mL. It also gave an IC80, pseudovirus neutralization [7] of 9.21 ng/mL.

B4: F770-E8 (antibody, V domains shown)
VH: QVTLRESGPALVKPTQTLTLTCTFSGFSLSTRGVCVSWIRQPPGKALEWLAFIDWDDDKYYNTSLKTRLTISKDTSKNQVVLTMTNVHPVDTATYYCARISSHHGSSWCTTFDYWGQGALVTVSA
VL: DTVMTQSPLSLPVTPGEPASISCRSSQSLLNSNGYNYLDWYVQKPGQSPQLLIYLGSNRASGVPDRFSGSGSGTDFTLKISRVEAEDVGVYYCMQPLQTPLFTFGPGTKVEIK
B4 was tested, and the IC50, pseudovirus neutralization [3] was 61.5 ng/mL, the IC80, pseudovirus neutralization [3] was 705 ng/mL and the IC50, pseudovirus neutralization [4] was 496 ng/mL. It also gave an IC80, pseudovirus neutralization [4] of 1800 ng/mL, an IC50, pseudovirus neutralization [5] of 124 ng/mL and an IC80, pseudovirus neutralization [5] of 5190 ng/mL. It also gave an IC50, pseudovirus neutralization [6] of 1.72 ng/mL, an IC80, pseudovirus neutralization [6] of 5.9 ng/mL and an IC50, pseudovirus neutralization [7] of 0.13 ng/mL. It also gave an IC80, pseudovirus neutralization [7] of 0.49 ng/mL.

B5: MX1045 (bispecific antibody)
chain 1: EIVLTQSPGTLSLSPGETATLSCRASQSFSSDLAWYQQKPGQAPRLLIYGASSRATGIPDRFSGSGSGTDFTLTISRLEPADFAVYYCQQYGSSPPVTFGGGTKVEIKGGSSGQTVVTQEPSFSVSPGGTVTLTCGLSSGSVSTAYFPSWYQQTPGQAPRTLIYGTNTRSSGVPDRFSGSILGNKAALTITGAQADDESDYYCVLYMGRGIVVFGGGTKLTVLGGGGSGGSGSGGGGSASGSGQVQLVESGGGVVQPGRSLRLSCAASGFTLSSYGMHWVRQAPGKGLEWVAVISYDGSNKYYVDSVKGRFTISRDNSKNTLYLQMNSLRAEDTAVYYCRWAYWELLPDYYYGMDVWGQGTTVTVSSGGSSGEVQLVESGGGLIQPGGSLRLSCAASGVIVSYNYMNWVRQAPGKGLEWVSVIYSGGSTFYADSVRGRFTISRDNSKNTLYLQMNSLRAEDTAVYYCARDLGPAGAFDIWGLGTMVTVSSASGGSGDKTHTCPPCPAPELLGGPSVFLFPPKPKDTLMISRTPEVTCVVVDVSHEDPEVKFNWYVDGVEVHNAKTKPREEQYNSYVVSVLTVLHQDWLNGKEYKCKVSNKALPAPIEKTISKAKGQPREPQVYTLPPCRDELTKNQVSLWCLVKGFYPSDIAVEWESNGQPENNYKTTPPVLDSDGSFFKKLTVDKSRWQQGNVFSCSVLHEALHSHYTQKSLSLSPG
chain 2: QTVVTQEPSFSVSPGGTVTLTCGLSSGSVSTAYFPSWYQQTPGQAPRTLIYGTNTRSSGVPDRFSGSILGNKAALTITGAQADDESDYYCVLYMGRGIVVFGGGTKLTVLGGSSGEIVLTQSPGTLSLSPGETATLSCRASQSFSSDLAWYQQKPGQAPRLLIYGASSRATGIPDRFSGSGSGTDFTLTISRLEPADFAVYYCQQYGSSPPVTFGGGTKVEIKGGGGSGGSGSGGGGSASGSGEVQLVESGGGLIQPGGSLRLSCAASGVIVSYNYMNWVRQAPGKGLEWVSVIYSGGSTFYADSVRGRFTISRDNSKNTLYLQMNSLRAEDTAVYYCARDLGPAGAFDIWGLGTMVTVSSGGSSGQVQLVESGGGVVQPGRSLRLSCAASGFTLSSYGMHWVRQAPGKGLEWVAVISYDGSNKYYVDSVKGRFTISRDNSKNTLYLQMNSLRAEDTAVYYCRWAYWELLPDYYYGMDVWGQGTTVTVSSASGGSGDKTHTCPPCPAPELLGGPSVFLFPPKPKDTLMISRTPEVTCVVVDVSHEDPEVKFNWYVDGVEVHNAKTKPREEQYNSYVVSVLTVLHQDWLNGKEYKCKVSNKALPAPIEKTISKAKGQPREPQVCTLPPSRDELTKNQVSLSCAVKGFYPSDIAVEWESNGQPENNYKTTPPVLDSDGSFFLVSKLTVDKSRWQQGNVFSCSVLHEALHSHYTQKSLSLSPG
In the case of B5, the IC50, pseudovirus neutralization [8] is reported as 6.02 ng/mL, the IC80, pseudovirus neutralization [8] is reported as 22.3 ng/mL and the IC50, pseudovirus neutralization [9] is reported as 2.91 ng/mL. For the same binder, the IC80, pseudovirus neutralization [9] was 5.43 ng/mL, the IC50, pseudovirus neutralization [10] was 1.5 ng/mL and the IC80, pseudovirus neutralization [10] was 8.57 ng/mL. It also gave an IC50, pseudovirus neutralization [11] of 2.68 ng/mL, an IC80, pseudovirus neutralization [11] of 6.06 ng/mL and an IC50, pseudovirus neutralization [12] of 6.09 ng/mL. It also gave an IC80, pseudovirus neutralization [12] of 18 ng/mL.

B6: MX1046 (bispecific antibody)
chain 1: EIVLTQSPGTLSLSPGETATLSCRASQSFSSDLAWYQQKPGQAPRLLIYGASSRATGIPDRFSGSGSGTDFTLTISRLEPADFAVYYCQQYGSSPPVTFGGGTKVEIKGGSSGDTVMTQSPLSLPVTPGEPASISCRSSQSLLNSNGYNYLDWYVQKPGQSPQLLIYLGSNRASGVPDRFSGSGSGTDFTLKISRVEAEDVGVYYCMQPLQTPLFTFGPGTKVEIKGGGGSGGSGSGGGGSASGSGQVTLRESGPALVKPTQTLTLTCTFSGFSLSTRGVCVSWIRQPPGKALEWLAFIDWDDDKYYNTSLKTRLTISKDTSKNQVVLTMTNVHPVDTATYYCARISSHHGSSWCTTFDYWGQGALVTVSAGGSSGEVQLVESGGGLIQPGGSLRLSCAASGVIVSYNYMNWVRQAPGKGLEWVSVIYSGGSTFYADSVRGRFTISRDNSKNTLYLQMNSLRAEDTAVYYCARDLGPAGAFDIWGLGTMVTVSSASGGSGDKTHTCPPCPAPELLGGPSVFLFPPKPKDTLMISRTPEVTCVVVDVSHEDPEVKFNWYVDGVEVHNAKTKPREEQYNSYVVSVLTVLHQDWLNGKEYKCKVSNKALPAPIEKTISKAKGQPREPQVYTLPPCRDELTKNQVSLWCLVKGFYPSDIAVEWESNGQPENNYKTTPPVLDSDGSFFKKLTVDKSRWQQGNVFSCSVLHEALHSHYTQKSLSLSPG
chain 2: DTVMTQSPLSLPVTPGEPASISCRSSQSLLNSNGYNYLDWYVQKPGQSPQLLIYLGSNRASGVPDRFSGSGSGTDFTLKISRVEAEDVGVYYCMQPLQTPLFTFGPGTKVEIKGGSSGEIVLTQSPGTLSLSPGETATLSCRASQSFSSDLAWYQQKPGQAPRLLIYGASSRATGIPDRFSGSGSGTDFTLTISRLEPADFAVYYCQQYGSSPPVTFGGGTKVEIKGGGGSGGSGSGGGGSASGSGEVQLVESGGGLIQPGGSLRLSCAASGVIVSYNYMNWVRQAPGKGLEWVSVIYSGGSTFYADSVRGRFTISRDNSKNTLYLQMNSLRAEDTAVYYCARDLGPAGAFDIWGLGTMVTVSSGGSSGQVTLRESGPALVKPTQTLTLTCTFSGFSLSTRGVCVSWIRQPPGKALEWLAFIDWDDDKYYNTSLKTRLTISKDTSKNQVVLTMTNVHPVDTATYYCARISSHHGSSWCTTFDYWGQGALVTVSAASGGSGDKTHTCPPCPAPELLGGPSVFLFPPKPKDTLMISRTPEVTCVVVDVSHEDPEVKFNWYVDGVEVHNAKTKPREEQYNSYVVSVLTVLHQDWLNGKEYKCKVSNKALPAPIEKTISKAKGQPREPQVCTLPPSRDELTKNQVSLSCAVKGFYPSDIAVEWESNGQPENNYKTTPPVLDSDGSFFLVSKLTVDKSRWQQGNVFSCSVLHEALHSHYTQKSLSLSPG
Work on B6 yielded an IC50, pseudovirus neutralization [8] of 1.66 ng/mL, an IC80, pseudovirus neutralization [8] of 4.08 ng/mL and an IC50, pseudovirus neutralization [9] of 0.36 ng/mL. For the same binder, the IC80, pseudovirus neutralization [9] was 1.29 ng/mL, the IC50, pseudovirus neutralization [10] was 1.23 ng/mL and the IC80, pseudovirus neutralization [10] was 3.97 ng/mL. It also gave an IC50, pseudovirus neutralization [11] of 0.9 ng/mL, an IC80, pseudovirus neutralization [11] of 1.56 ng/mL and an IC50, pseudovirus neutralization [12] of 1.26 ng/mL. For the same binder, the IC80, pseudovirus neutralization [12] was 2.88 ng/mL.
